IntAct's records for PubMed 22135460

Legend:
rpos_ecoli rpoS = rpos_ecoli rpoS (UniProt P13445)
rpod_ecoli rpoD = rpod_ecoli rpoD (UniProt P00579)
ltact_bpt4 33 = target: T1, ltact_bpt4 33 (UniProt P13338)
T1 sequence: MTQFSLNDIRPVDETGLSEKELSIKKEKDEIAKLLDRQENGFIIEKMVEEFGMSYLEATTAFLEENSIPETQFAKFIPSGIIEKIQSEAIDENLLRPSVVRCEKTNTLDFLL

Sequence of rpos_ecoli rpoS (P13445 whole entry): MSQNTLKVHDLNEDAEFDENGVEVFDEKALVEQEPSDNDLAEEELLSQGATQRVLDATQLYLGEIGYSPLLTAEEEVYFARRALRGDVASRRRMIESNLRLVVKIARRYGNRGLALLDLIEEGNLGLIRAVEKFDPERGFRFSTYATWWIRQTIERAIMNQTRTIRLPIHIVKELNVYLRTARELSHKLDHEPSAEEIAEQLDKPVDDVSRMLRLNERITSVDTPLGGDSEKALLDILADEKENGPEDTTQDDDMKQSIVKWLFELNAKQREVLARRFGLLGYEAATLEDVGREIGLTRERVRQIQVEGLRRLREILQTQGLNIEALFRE
Sequence of rpod_ecoli rpoD (P00579 whole entry): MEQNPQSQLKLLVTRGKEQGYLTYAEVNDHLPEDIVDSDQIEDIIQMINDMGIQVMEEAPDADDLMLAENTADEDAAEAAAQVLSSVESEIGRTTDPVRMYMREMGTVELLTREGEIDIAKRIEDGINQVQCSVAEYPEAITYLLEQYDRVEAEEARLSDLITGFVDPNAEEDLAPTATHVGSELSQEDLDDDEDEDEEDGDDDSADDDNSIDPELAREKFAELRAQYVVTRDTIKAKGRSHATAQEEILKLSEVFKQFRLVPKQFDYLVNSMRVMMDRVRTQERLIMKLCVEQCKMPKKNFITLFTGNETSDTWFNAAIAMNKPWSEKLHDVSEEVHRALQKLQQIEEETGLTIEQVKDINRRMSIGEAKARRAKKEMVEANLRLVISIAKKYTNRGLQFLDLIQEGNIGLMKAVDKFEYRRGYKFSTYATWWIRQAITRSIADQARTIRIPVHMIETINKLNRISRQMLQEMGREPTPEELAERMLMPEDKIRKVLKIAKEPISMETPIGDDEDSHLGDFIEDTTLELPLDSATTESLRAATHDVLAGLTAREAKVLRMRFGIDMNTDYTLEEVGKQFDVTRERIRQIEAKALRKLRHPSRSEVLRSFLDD

Substance	effect of a mutation on the interaction (rpos_ecoli rpoS)	effect of a mutation on the interaction (rpod_ecoli rpoD)	effect of a mutation on the interaction (ltact_bpt4 33)
DNA-directed RNA polymerase subunit beta (Escherichia coli (strain K12)) (from UniProt P0A8V2) E898A	decreasing interaction strength	disrupting interaction strength	disrupting interaction strength
DNA-directed RNA polymerase subunit beta (Escherichia coli (strain K12)) (from UniProt P0A8V2) E899A		decreasing interaction strength	disrupting interaction strength
DNA-directed RNA polymerase subunit beta (Escherichia coli (strain K12)) (from UniProt P0A8V2) F906A	decreasing interaction strength	disrupting interaction strength	disrupting interaction strength
DNA-directed RNA polymerase subunit beta (Escherichia coli (strain K12)) (from UniProt P0A8V2) I905A	decreasing interaction strength	disrupting interaction strength	disrupting interaction strength
DNA-directed RNA polymerase subunit beta (Escherichia coli (strain K12)) (from UniProt P0A8V2) K900A		disrupting interaction strength	disrupting interaction strength
DNA-directed RNA polymerase subunit beta (Escherichia coli (strain K12)) (from UniProt P0A8V2) K900E			disrupting interaction strength
DNA-directed RNA polymerase subunit beta (Escherichia coli (strain K12)) (from UniProt P0A8V2) L901A	disrupting interaction strength	disrupting interaction strength	disrupting interaction strength
DNA-directed RNA polymerase subunit beta (Escherichia coli (strain K12)) (from UniProt P0A8V2) L902A	decreasing interaction strength	disrupting interaction strength	disrupting interaction strength
DNA-directed RNA polymerase subunit beta (Escherichia coli (strain K12)) (from UniProt P0A8V2) R903A	decreasing interaction strength	decreasing interaction strength	disrupting interaction strength
